Data reported in patent publication US20110130449A1 (ISIS INNOVATION, published 2011).

B1: cisplatin resistance-associated overexpressed protein (CROP) (other)
chain: MISAAQLLDELMGRDRNLAPDEKRSNVRWDHESVCKYYLCGFCPAELFTNTRSDLGPCEKIHDENLRKQYEKSSRFMKVGYERDFLRYLQSLLAEVERRIRRGHARLALSQNQQSSGAAGPTGKNEEKIQVLTDKIDVLLQQIEELGSEGKVEEAQGMMKLVEQLKEERELLRSTTSTIESFAAQEKQMEVCEVCGAFLIVGDAQSRVDDHLMGKQHMGYAKIKATVEELKEKLRKRTEEPDRDERLKKEKQEREEREKEREREREERERKRRREEEEREKERARDRERRKRSRSRSRHSSRTSDRRCSRSRDHKRSRSRERRRSRSRDRRRSRSHDRSERKHRSRSRDRRRSKSRDRKSYKHRSKSRDREQDRKSKEKEKRGSDDKKSSVKSGSREKQSEDTNTESKESDTKNEVNGTSEDIKSEGDTQSN
notes: also called CROP protein
B2: Splicing factor U2AF 65 kD subunit (other)
chain: SDFDEFERQLNENKQERDKENRHRKRSHSRSRSRDRKRRSRSRDRRNRDQRSASRDRRRRSKPLTRGAKEEHGGLIRSPRHEKKKKVRKYWDVPPPGFEHITPMQYKAMQAAGQIPATALLPTMTPDGLAVTPTPVPVVGSQMTRQARRLYVGNIPFGITEEAMMDFFNAQMRLGGLTQAPGNPVLAVQINQDKNFAFLEFRSVDETTQAMAFDGIIFQGQSLKIRRPHDYQPLPGMSENPSVYVPGVVSTVVPDSAHKLFIGGLPNYLNDDQVKELLTSFGPLKAFNLVKDSATGLSKGYAFCEYVDINVTDQAIAGLNGMQLGDKKLLVQRASVGAKNATLVSPPSTINQTPVTLQVPGLMSSQVQMGGHPTEVLCLMNMVLPEELLDDEEYEEIVEDVRDECSKYGLVKSIEIPRPVDGVEVPGCGKIFVEFTSVFDCQKAMQGLTGRKFANRVVVTKYCDPDSYHRRDFW
notes: also called U2 snRNP auxiliary factor 65 KDa subunit

What was measured:
[1] = biological target: TAP-tagged Jmjd6 fusion protein (human); test: tandem affinity purification of TAP-tagged Jmjd6 from HEK293T cells, MS identification
[2] = biological target: Jmjd6 active site mutant ASM1 (GFP fusion) (human, UniProt Q5R6G2 1-403); test: GFP nanotrap pulldown, Western blot
[3] = biological target: Jmjd6 with an N-terminal deletion of seven amino acids (GFP fusion) (human, UniProt Q5R6G2 8-403); test: GFP nanotrap pulldown, Western blot

Binder	binding result [1]	binding result [2]	binding result [3]
B1	binds		
B2	binds	no binding	no binding
